Experimental data as given in US20120114557A1.
Bridge positions count the residues as written; N and C are the ends. Square brackets hold non-standard residues; d marks the D form. Ends that are not written are not given here. NMeA = CN[C@@H](C)C(=O)O; Sar = CNCC(=O)O

Assays:
[1] = target: human collagen type I (human) (UniProt P02452); test: dried collagen assay, 5 uM peptide
[2] = target: rat collagen type I (rat) (UniProt P02454); test: dried collagen assay, 5 uM peptide
Sequence of rat collagen type I (rat) (P02454 152-1207, chain 1 of 2): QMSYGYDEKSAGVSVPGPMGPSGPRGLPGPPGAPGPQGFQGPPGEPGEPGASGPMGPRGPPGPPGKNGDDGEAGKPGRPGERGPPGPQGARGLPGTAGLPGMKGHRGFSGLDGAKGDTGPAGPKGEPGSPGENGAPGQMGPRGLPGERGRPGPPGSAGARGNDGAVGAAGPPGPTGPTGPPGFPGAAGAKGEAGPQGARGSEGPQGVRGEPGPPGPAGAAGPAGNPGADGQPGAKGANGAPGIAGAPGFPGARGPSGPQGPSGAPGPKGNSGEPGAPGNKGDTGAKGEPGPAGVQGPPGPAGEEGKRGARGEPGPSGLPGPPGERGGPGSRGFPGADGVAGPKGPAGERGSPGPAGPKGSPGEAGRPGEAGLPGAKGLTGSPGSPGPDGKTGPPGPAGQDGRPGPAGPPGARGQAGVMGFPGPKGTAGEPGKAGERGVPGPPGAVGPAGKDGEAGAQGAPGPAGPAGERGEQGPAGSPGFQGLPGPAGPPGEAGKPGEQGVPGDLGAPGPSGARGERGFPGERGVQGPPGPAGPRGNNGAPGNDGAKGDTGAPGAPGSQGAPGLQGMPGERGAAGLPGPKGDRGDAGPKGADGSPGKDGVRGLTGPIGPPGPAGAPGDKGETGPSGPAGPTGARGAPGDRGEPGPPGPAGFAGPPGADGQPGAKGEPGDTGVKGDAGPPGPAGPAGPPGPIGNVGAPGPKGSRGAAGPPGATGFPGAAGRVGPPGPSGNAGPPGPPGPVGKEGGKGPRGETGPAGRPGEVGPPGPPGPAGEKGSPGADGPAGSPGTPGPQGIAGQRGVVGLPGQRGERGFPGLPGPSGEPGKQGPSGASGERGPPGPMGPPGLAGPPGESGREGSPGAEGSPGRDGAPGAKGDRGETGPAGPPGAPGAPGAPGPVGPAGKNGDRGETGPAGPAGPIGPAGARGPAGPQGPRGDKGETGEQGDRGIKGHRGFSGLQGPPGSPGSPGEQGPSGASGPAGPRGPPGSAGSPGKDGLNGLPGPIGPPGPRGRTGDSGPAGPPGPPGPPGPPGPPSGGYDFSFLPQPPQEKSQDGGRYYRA
Sequence of rat collagen type I (rat) (P02466 86-1125, chain 2 of 2, further chain): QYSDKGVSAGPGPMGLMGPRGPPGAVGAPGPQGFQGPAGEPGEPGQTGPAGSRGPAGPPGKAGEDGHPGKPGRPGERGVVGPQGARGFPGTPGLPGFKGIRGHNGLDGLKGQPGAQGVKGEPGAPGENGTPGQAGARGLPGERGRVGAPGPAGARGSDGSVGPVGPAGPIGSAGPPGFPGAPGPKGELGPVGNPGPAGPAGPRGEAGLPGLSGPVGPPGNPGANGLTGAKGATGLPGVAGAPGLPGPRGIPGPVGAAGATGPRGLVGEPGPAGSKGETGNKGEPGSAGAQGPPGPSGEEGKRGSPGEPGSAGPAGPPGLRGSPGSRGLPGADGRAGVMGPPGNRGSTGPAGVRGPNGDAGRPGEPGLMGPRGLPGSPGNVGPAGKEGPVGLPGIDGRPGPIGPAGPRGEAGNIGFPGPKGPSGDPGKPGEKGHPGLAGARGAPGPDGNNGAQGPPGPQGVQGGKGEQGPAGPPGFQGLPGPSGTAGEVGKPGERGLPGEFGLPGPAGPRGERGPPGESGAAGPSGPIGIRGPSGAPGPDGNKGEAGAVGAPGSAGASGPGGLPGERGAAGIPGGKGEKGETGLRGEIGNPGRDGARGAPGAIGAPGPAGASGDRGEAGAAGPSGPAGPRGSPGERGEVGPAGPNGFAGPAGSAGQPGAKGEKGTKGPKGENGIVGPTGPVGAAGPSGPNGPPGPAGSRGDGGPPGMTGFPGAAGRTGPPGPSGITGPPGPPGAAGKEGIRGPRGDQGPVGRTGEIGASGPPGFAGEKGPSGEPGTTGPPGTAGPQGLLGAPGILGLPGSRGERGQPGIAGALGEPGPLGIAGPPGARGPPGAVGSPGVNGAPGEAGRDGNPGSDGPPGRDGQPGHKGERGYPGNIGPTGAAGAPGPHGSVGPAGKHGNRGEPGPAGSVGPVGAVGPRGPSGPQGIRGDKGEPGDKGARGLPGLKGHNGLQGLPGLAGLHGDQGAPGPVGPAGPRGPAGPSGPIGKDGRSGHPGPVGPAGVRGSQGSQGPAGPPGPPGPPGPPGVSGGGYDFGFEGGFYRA

Sequence of human collagen type I (human) (P02452 162-1218 limits assumed, chain 1 of 2): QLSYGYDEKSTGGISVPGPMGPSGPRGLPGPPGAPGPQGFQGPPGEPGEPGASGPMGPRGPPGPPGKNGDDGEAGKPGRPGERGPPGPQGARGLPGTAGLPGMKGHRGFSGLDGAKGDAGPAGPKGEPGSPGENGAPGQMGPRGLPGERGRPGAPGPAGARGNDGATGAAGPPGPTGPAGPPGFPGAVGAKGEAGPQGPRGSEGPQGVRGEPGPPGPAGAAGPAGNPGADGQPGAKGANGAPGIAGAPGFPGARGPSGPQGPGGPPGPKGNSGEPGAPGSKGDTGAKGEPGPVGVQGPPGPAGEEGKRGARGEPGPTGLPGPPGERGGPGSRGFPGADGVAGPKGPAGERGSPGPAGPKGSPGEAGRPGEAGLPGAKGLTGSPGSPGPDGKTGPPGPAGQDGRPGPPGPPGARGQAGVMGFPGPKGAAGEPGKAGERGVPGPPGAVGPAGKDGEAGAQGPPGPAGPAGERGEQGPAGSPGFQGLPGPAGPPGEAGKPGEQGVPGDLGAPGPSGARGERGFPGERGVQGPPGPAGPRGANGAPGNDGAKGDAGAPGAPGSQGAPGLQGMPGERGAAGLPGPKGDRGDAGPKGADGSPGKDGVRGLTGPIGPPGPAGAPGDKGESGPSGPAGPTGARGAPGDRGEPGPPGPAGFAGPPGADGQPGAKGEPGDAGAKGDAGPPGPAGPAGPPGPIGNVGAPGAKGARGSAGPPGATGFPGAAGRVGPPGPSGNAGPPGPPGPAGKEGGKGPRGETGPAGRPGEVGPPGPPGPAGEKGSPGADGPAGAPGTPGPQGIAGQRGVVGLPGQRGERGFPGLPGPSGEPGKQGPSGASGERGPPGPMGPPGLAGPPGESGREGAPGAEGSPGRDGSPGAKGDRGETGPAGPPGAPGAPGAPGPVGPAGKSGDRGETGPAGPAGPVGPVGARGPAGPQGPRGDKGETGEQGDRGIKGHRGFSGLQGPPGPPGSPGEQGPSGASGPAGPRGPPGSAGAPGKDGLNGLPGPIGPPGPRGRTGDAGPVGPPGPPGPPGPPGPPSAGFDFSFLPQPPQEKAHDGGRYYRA
Sequence of human collagen type I (human) (P08123 80-1119 limits assumed, chain 2 of 2, further chain): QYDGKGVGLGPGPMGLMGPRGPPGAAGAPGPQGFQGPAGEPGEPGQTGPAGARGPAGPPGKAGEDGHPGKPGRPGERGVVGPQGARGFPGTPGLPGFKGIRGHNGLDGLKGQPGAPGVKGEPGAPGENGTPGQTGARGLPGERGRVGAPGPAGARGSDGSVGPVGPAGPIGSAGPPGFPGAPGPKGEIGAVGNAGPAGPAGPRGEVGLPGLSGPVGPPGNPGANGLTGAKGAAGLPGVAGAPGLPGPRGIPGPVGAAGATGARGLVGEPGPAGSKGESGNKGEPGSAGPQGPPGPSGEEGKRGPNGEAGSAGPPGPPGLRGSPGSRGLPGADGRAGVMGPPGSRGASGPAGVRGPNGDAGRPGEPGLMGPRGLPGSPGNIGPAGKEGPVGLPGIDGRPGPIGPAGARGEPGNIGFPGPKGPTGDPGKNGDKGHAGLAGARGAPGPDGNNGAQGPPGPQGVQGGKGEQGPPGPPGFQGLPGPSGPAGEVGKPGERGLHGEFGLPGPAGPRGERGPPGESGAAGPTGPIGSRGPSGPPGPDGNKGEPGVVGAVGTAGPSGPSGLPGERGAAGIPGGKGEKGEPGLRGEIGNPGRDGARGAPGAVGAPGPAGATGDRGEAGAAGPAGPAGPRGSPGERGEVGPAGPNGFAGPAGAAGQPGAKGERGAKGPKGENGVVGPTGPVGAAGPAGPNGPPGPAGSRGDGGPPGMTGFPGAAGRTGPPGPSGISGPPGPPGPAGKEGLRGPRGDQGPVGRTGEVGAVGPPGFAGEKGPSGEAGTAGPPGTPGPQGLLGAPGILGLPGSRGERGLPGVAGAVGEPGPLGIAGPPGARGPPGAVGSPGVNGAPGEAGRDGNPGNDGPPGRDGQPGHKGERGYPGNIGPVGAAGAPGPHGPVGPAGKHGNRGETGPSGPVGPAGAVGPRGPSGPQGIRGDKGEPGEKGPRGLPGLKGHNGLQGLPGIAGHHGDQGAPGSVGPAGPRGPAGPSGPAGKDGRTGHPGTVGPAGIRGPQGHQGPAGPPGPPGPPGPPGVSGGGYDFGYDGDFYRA

Binder	% Collagen Binding, Dried Human [1]	% Collagen Binding, Dried Rat [2]	Dried Human Collagen Binding [1]
DWTCS[dY]DEYTWHCNYE (disulfide 4-13 (inferred); not fully specified (C-terminus); printed as D W T C S y D E Y T W H C N Y E) [SEQ ID NO: 182]	89%	86%	–
DWTCS[dA]DEYTWHCNYE (disulfide 4-13 (inferred); not fully specified (C-terminus); printed as D W T C S a D E Y T W H C N Y E) [SEQ ID NO: 179]	81%	75%	–
GQWTCSADEYTWHCNYE (disulfide 5-14 (inferred)) [SEQ ID NO: 142]	–	6%	–
YHACYQAGC[dW]IW (disulfide 4-9 (inferred)) [SEQ ID NO: 160]	20%	12%	–
DWTCS[dS]DEYTWHCNYE (disulfide 4-13 (inferred); not fully specified (C-terminus); printed as D W T C S s D E Y T W H C N Y E) [SEQ ID NO: 180]	81%	72%	–
G[dQ]WTCSGDEYTWHCNYE (disulfide 5-14 (inferred)) [SEQ ID NO: 164]	46%	31%	–
YHACYQ[dA]GCWIW (disulfide 4-9 (inferred)) [SEQ ID NO: 158]	56%	66%	–
GQWTCSGD[dE]YTWHCNYE (disulfide 5-14 (inferred); not fully specified (C-terminus)) [SEQ ID NO: 170]	49%	35%	–
GQWTCSGDEYTWHC[dN]YE (disulfide 5-14 (inferred); not fully specified (C-terminus)) [SEQ ID NO: 176]	2%	2%	–
YHACYQAGCYIW (disulfide 4-9 (inferred)) [SEQ ID NO: 107]	–	6%	–
GQWTCSGDEY[dT]WHCNYE (disulfide 5-14 (inferred); not fully specified (C-terminus)) [SEQ ID NO: 172]	9%	8%	–
PMICHAPYVGKCNFL (disulfide 4-12 (inferred)) [SEQ ID NO: 12]	–	–	7%
GQ[dW]TCSGDEYTWHCNYE (disulfide 5-14 (inferred)) [SEQ ID NO: 165]	2%	4%	–
YHACYQAGCWAW (disulfide 4-9 (inferred)) [SEQ ID NO: 137]	–	7%	–
YH[dA]CYQAGCWIW (disulfide 4-9 (inferred)) [SEQ ID NO: 154]	24%	21%	–
GQWTCSGDEYTW[dH]CNYE (disulfide 5-14 (inferred); not fully specified (C-terminus)) [SEQ ID NO: 174]	5%	0%	–
GQWTCSGDE[dY]TWHCNYE (disulfide 5-14 (inferred); not fully specified (C-terminus)) [SEQ ID NO: 171]	13%	6%	–
YHACYQAGCWI[dW] (disulfide 4-9 (inferred)) [SEQ ID NO: 162]	18%	14%	–
Y[dH]ACYQAGCWIW (disulfide 4-9 (inferred)) [SEQ ID NO: 153]	0%	0%	–
DWTCS[dR]DEYTWHCNYE (disulfide 4-13 (inferred); not fully specified (C-terminus); printed as D W T C S r D E Y T W H C N Y E) [SEQ ID NO: 181]	87%	86%	–
DWTCS[dL]DEYTWHCNYE (disulfide 4-13 (inferred); not fully specified (C-terminus); printed as D W T C S l D E Y T W H C N Y E) [SEQ ID NO: 183]	73%	63%	–

The remaining lines, values ahead:

% Collagen Binding, Dried Human [1]	% Collagen Binding, Dried Rat [2]	Dried Human Collagen Binding [1]	Binder
37%	35%	–	YHACY[dQ]AGCWIW (disulfide 4-9 (inferred)) [SEQ ID NO: 157]
9%	23%	–	YHACYQ[NMeA]GCWIW (disulfide 4-9 (inferred)) [SEQ ID NO: 105]
30%	27%	–	GQWTCSGDEYTWHCN[dY]E (disulfide 5-14 (inferred); not fully specified (C-terminus)) [SEQ ID NO: 177]
38%	48%	–	YHAC[dY]QAGCWIW (disulfide 4-9 (inferred)) [SEQ ID NO: 156]
8%	10%	–	YHACYQAGCW[dI]W (disulfide 4-9 (inferred)) [SEQ ID NO: 161]
3%	2%	–	GQWTC[dS]GDEYTWHCNYE (disulfide 5-14 (inferred)) [SEQ ID NO: 168]
12%	19%	–	YHACYQA[Sar]CWIW (disulfide 4-9 (inferred)) [SEQ ID NO: 104]
2%	3%	–	GQW[dT]CSGDEYTWHCNYE (disulfide 5-14 (inferred)) [SEQ ID NO: 166]
5%	4%	–	GQWTCSGDEYT[dW]HCNYE (disulfide 5-14 (inferred); not fully specified (C-terminus)) [SEQ ID NO: 173]
11%	4%	–	GQWTCSG[dD]EYTWHCNYE (disulfide 5-14 (inferred); not fully specified (C-terminus)) [SEQ ID NO: 169]
